Data reported in patent US20230257479A1 (Genmab, published 2023).
Substitutions are numbered along the chain they refer to. Names may count otherwise.

Experiments:
[1] = molecular target: T1, human 5T4ECDHis (mature protein of SEQ ID NO: 99) (human, UniProt Q13641 32-355); assay: BLI cross-block; competitor (immobilised): IgG1-5T4-H8-FEAR
T1 construct: ECD of human 5T4 (aa 1-355 of Uniprot Q13641) with C-terminal His tag; residues 1-31 are the signal peptide; also called ECD of human 5T4 with a C-terminal His tag
T1 sequence: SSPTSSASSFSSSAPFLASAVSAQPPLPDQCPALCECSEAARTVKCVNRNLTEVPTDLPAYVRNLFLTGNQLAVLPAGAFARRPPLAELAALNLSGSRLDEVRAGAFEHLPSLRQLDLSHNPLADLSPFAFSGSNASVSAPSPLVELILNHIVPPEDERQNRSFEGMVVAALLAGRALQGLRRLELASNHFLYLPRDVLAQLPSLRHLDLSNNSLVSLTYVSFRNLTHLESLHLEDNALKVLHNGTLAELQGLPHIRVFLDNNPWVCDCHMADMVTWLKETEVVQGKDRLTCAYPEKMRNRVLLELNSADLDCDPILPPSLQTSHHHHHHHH

[2] = molecular target: T1, human 5T4ECDHis (mature protein of SEQ …); assay: BLI cross-block; competitor (immobilised): IgG1-5T4-059-FEAR
[3] = molecular target: T1, human 5T4ECDHis (mature protein of SEQ …); assay: BLI cross-block; competitor (immobilised): IgG1-5T4-076-FEAR
[4] = molecular target: T1, human 5T4ECDHis (mature protein of SEQ …); assay: BLI cross-block; competitor (immobilised): IgG1-5T4-085-FEAR
[5] = molecular target: T1, human 5T4ECDHis (mature protein of SEQ …); assay: BLI cross-block; competitor (immobilised): IgG1-5T4-106-FEAR
[6] = molecular target: T1, human 5T4ECDHis (mature protein of SEQ …); assay: BLI cross-block; competitor (immobilised): IgG1-5T4-127-FEAR
[7] = molecular target: T1, human 5T4ECDHis (mature protein of SEQ …); assay: BLI cross-block; competitor (immobilised): IgG1-5T4-207-FEAR
[8] = molecular target: T1, human 5T4ECDHis (mature protein of SEQ …); assay: BLI cross-block; competitor (immobilised): IgG1-5T4-226-FEAR
[9] = molecular target: T1, human 5T4ECDHis (mature protein of SEQ …); assay: BLI cross-block; competitor (immobilised): IgG1-5T4-A1-F405L
[10] = molecular target: T1, human 5T4ECDHis (mature protein of SEQ …); assay: BLI cross-block; competitor (immobilised): IgG1-5T4-A3-F405L
[11] = molecular target: T1, human 5T4ECDHis (mature protein of SEQ …); assay: BLI, antibody on anti-human IgG Fc Capture biosensor, antigen in solution
[12] = molecular target: T2, full length human 5T4 (SEQ ID NO: 1) on cells (human, UniProt Q13641 32-420); assay: flow cytometry, HEK-293 cells transfected with human 5T4, PE secondary [II)D]
T2 construct: Uniprot Q13641; residues 1-31 are the signal peptide; Used both for transfected HEK-293 cells and for 5T4-expressing human tumor cell lines
T2 sequence: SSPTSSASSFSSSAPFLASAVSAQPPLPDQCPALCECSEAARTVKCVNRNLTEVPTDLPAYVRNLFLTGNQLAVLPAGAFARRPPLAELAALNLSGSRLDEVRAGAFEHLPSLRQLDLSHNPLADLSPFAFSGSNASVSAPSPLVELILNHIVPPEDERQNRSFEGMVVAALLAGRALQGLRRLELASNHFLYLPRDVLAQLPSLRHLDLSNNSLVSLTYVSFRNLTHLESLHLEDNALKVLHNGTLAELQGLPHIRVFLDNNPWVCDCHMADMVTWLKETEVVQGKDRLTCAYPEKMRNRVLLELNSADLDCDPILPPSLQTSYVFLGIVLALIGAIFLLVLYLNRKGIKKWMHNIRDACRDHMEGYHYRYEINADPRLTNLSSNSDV

[13] = molecular target: T3, full length cynomolgus monkey 5T4 on transfected HEK-293 cells (cynomolgus monkey, UniProt Q4R8Y9 35-420); assay: flow cytometry, HEK-293 cells transfected with cynomolgus monkey 5T4, PE secondary [II)D]
T3 construct: Uniprot Q4R8Y9; residues 1-34 are the signal peptide; also called cynomolgus 5T4
T3 sequence: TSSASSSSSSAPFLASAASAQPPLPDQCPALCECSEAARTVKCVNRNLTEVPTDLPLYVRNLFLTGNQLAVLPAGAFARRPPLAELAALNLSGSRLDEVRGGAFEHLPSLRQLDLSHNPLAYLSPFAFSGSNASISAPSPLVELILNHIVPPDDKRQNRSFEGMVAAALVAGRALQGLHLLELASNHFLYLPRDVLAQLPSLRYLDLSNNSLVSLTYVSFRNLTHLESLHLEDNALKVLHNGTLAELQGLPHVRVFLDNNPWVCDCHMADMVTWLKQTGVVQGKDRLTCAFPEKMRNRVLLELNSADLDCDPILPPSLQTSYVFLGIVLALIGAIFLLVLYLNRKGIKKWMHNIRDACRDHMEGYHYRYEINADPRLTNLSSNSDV

[14] = molecular target: T2, full length human 5T4 (SEQ ID NO: 1) on …; assay: flow cytometry, HEK-293 cells transfected with human 5T4, PE secondary [II)F]
[15] = molecular target: T3, full length cynomolgus monkey 5T4 on …; assay: flow cytometry, HEK-293 cells transfected with cynomolgus monkey 5T4, PE secondary [II)F]
[16] = molecular target: T2, full length human 5T4 (SEQ ID NO: 1) on …; assay: flow cytometry, HEK-293 cells transfected with human 5T4, FITC secondary [I)D]
[17] = molecular target: T3, full length cynomolgus monkey 5T4 on …; assay: flow cytometry, HEK-293 cells transfected with cynomolgus monkey 5T4, FITC secondary [I)D]
[18] = molecular target: T2, full length human 5T4 (SEQ ID NO: 1) on …; assay: flow cytometry, FaDu cells, R-PE secondary
[19] = molecular target: T2, full length human 5T4 (SEQ ID NO: 1) on …; assay: flow cytometry, OE33 cells, R-PE secondary
[20] = molecular target: T2, full length human 5T4 (SEQ ID NO: 1) on …; assay: flow cytometry, SCC-9 cells, R-PE secondary
[21] = molecular target: T2, full length human 5T4 (SEQ ID NO: 1) on …; assay: flow cytometry, HeLa cells, PE secondary [II)A]
[22] = molecular target: T2, full length human 5T4 (SEQ ID NO: 1) on …; assay: flow cytometry, SK-GT-4 cells, R-PE secondary
[23] = molecular target: T2, full length human 5T4 (SEQ ID NO: 1) on …; assay: flow cytometry, HeLa cells, FITC secondary [I)A]
[24] = molecular target: T2, full length human 5T4 (SEQ ID NO: 1) on …; assay: flow cytometry, NCI-H292 cells, R-PE secondary
[25] = molecular target: T2, full length human 5T4 (SEQ ID NO: 1) on …; assay: flow cytometry, MDA-MB-231 cells, FITC secondary [I)A]
[26] = molecular target: T2, full length human 5T4 (SEQ ID NO: 1) on …; assay: flow cytometry, MDA-MB-231 cells, PE secondary [III)A]
[27] = molecular target: T2, full length human 5T4 (SEQ ID NO: 1) on …; assay: flow cytometry, HEK-293 cells transfected with human 5T4, PE secondary [II)A]
[28] = molecular target: T3, full length cynomolgus monkey 5T4 on …; assay: flow cytometry, HEK-293 cells transfected with cynomolgus monkey 5T4, PE secondary [II)A]
[29] = molecular target: T3, full length cynomolgus monkey 5T4 on …; assay: flow cytometry, HEK-293 cells transfected with cynomolgus monkey 5T4, FITC secondary [I)A]

B1: IgG1-5T4-106-FEAR (antibody, V domains shown)
VH: EVQLVQSGAEVKKPGESLKISCKGSGYRFTSYWIGWVRQMPGKGLEWMGIIYPGDSDARYSPSFQGQVTISADKSISTAYLQWSSLKASDTGMYYCARSVLFDYWGQGTLVTVSS
VL: AIQLTQSPSSLSASVGDRVTITCRASQGISSALAWYQQKPGKAPKLLIYDVSNLESGVPSRFSGSGSGTDFTLTISSLQPEDFATYYCQQFNSYPHTFGQGTKLEIK
notes: Monospecific, bivalent human IgG1 kappa with L234F, L235E, D265A, K409R (FEAR)
Work on B1 yielded a corrected association response [1] of -0.01 nm, a corrected association response [2] of 0.01 nm and a corrected association response [3] of -0.02 nm. For the same binder, the corrected association response [4] was -0.01 nm, the corrected association response [5] was -0.02 nm and the corrected association response [6] was -0.01 nm. The corrected association response [7] was -0.01 nm, the corrected association response [8] was -0.02 nm and the corrected association response [9] was 0.85 nm. It also gave a corrected association response [10] of 0.57 nm, a Kd [11] of 5.5 nM and a koff [11] of 0.0012 s⁻¹. For the same binder, the kon [11] was 210000 M⁻¹ s⁻¹, the “EC50 (read off the curve)” value [12] was roughly 0.01 µg/mL and the binding result [13] was “binds”.

B2: bsIgG1-huCD3-H101G-FEALx5T4-085-FEAR (bispecific antibody)
heavy: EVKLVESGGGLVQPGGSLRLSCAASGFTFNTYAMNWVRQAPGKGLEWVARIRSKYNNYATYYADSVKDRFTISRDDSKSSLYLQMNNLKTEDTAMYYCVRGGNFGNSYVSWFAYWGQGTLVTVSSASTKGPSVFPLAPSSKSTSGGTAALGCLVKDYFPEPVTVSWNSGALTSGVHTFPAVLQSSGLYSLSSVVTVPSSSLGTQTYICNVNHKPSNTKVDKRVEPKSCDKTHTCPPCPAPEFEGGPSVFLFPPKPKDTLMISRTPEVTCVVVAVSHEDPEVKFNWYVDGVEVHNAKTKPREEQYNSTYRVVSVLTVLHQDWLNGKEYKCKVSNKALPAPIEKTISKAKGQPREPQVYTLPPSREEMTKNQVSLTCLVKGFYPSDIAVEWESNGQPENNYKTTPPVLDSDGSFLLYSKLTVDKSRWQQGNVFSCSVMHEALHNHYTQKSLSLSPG
light: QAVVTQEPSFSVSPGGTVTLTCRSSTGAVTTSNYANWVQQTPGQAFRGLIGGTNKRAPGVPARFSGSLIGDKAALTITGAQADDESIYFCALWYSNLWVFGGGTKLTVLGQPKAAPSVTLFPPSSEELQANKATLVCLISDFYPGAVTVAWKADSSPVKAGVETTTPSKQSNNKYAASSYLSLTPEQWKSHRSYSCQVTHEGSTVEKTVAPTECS
VH: EVQLLESGGGLVQPGGSLRLSCAASGFTFSSYAMSWVRQAPGKGLEWVSAISGSGGSTYNADSVKGRFTIFRDNSKNTLYLHMNSLRAEDTAVYYCARDPGYNNVEYLDHWGQGTLVTVSS
VL: B1 VL with V51A, N53S, H96L, Q100G, L104V
notes: Fab-arm exchange product
With B2 the “EC50 (read off the curve)” value [14] was roughly 0.5 µg/mL and the “EC50 (read off the curve)” value [15] was roughly 0.4 µg/mL.

B3: bsIgG1-huCD3-H101G-FEALx5T4-H8-FEAR (bispecific antibody)
heavy: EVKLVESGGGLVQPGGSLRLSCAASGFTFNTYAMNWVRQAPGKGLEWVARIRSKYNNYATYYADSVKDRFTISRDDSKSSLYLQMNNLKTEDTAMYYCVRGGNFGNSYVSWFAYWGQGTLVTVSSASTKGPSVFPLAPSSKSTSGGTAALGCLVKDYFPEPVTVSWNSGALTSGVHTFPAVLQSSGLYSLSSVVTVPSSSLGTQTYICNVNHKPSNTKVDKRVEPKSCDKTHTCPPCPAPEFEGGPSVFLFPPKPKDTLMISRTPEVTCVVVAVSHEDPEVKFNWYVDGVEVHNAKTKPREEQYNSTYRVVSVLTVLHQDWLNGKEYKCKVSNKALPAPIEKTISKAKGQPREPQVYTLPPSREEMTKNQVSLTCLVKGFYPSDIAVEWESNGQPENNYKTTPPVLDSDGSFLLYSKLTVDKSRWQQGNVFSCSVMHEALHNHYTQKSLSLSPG
light: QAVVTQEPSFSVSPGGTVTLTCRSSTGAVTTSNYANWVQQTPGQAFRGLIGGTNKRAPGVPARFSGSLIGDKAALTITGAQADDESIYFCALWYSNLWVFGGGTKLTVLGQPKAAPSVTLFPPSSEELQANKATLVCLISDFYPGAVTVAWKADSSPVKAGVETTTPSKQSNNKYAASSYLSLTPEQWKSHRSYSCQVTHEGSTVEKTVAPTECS
VH: EVQLQQSGPDLVKPGASVKISCKASGYSFTGYYMHWVKQSHGKSLEWIGRINPNNGVTLYNQKFKDKAILTVDKSSTTAYMELRSLTSEDSAVYYCARSTMITNYVMDYWGQVTSVTVSS
VL: SIVMTQTPTFLLVSAGDRVTITCKASQSVSNDVAWYQQKPGQSPTLLISYTSSRYAGVPDRFIGSGYGTDFTFTISTLQAEDLAVYFCQQDYNSPPTFGGGTKLEIK
notes: Fab-arm exchange product
For B3, the binding result [16] was “binds” and the “EC50 (read off the curve)” value [17] was roughly 0.1 µg/mL.

B4: bsIgG1-huCD3-H101G-FEALx5T4-207-FEAR (bispecific antibody)
heavy 1: not shown
light 1: not shown
heavy 2: QVQLQQWGAGLLKPSETLSLTCAVYGGSFSGYYWTWIRQPPGKGLEWIGEIDHSESTNYNPSLKSRVTISVDTSKNQFSLKLSSVTAADTAVYYCAGWFGELYHYYYGMDVWGQGTTVTVSSASTKGPSVFPLAPSSKSTSGGTAALGCLVKDYFPEPVTVSWNSGALTSGVHTFPAVLQSSGLYSLSSVVTVPSSSLGTQTYICNVNHKPSNTKVDKRVEPKSCDKTHTCPPCPAPEFEGGPSVFLFPPKPKDTLMISRTPEVTCVVVAVSHEDPEVKFNWYVDGVEVHNAKTKPREEQYNSTYRVVSVLTVLHQDWLNGKEYKCKVSNKALPAPIEKTISKAKGQPREPQVYTLPPSREEMTKNQVSLTCLVKGFYPSDIAVEWESNGQPENNYKTTPPVLDSDGSFFLYSRLTVDKSRWQQGNVFSCSVMHEALHNHYTQKSLSLSPG
light 2: not shown
notes: also called CD3x5T4 bispecific antibody
For B4, the “EC50 (read off the curve)” value [18] was roughly 0.06 µg/mL, the “EC50 (read off the curve)” value [19] was roughly 0.08 µg/mL and the “EC50 (read off the curve)” value [20] was roughly 0.08 µg/mL. The “EC50 (read off the curve)” value [21] was roughly 0.04 µg/mL, the “EC50 (read off the curve)” value [22] was roughly 0.08 µg/mL and the “EC50 (read off the curve)” value [23] was roughly 0.04 µg/mL. The “EC50 (read off the curve)” value [24] was roughly 0.03 µg/mL, the “EC50 (read off the curve)” value [25] was roughly 0.1 µg/mL and the “EC50 (read off the curve)” value [26] was roughly 0.04 µg/mL. The “EC50 (read off the curve)” value [27] was roughly 0.06 µg/mL, the “EC50 (read off the curve)” value [28] was roughly 0.03 µg/mL and the “EC50 (read off the curve)” value [29] was roughly 0.1 µg/mL.
